Reference: publication PMC4577081 (PLoS ONE, 2015)

What was measured:
[1] = target: T1, human CD47 on stably transfected rat YB2/0 cells (Homo sapiens, UniProt Q08722); experiment: flow cytometry on cells; hybridoma clones (supernatants) tested by FACS on parental or human CD47-transfected rat YB2/0 cells; conditions: partners not purified
T1 construct: human CD47 expressed on the surface of YB2/0 cells; also called CD47-transfected YB2/0 cells; source: rat YB2/0 cells, stably transfected, on cells

[2] = target: T2, human CD47/mFc fusion protein (extracellular domain of human CD47 fused to mouse Fc) (human, UniProt Q08722); experiment: ELISA; competition: plates coated with 1 μg/ml huCD47/mFc; 10 μg/ml biotin-labeled mouse 5F9 with various concentrations of unlabeled Hu5F9-G4, room temperature 1 hr; HRP-streptavidin; conditions: both partners purified
T2 construct: human CD47 extracellular domain, cloned from a full-length human CD47 cDNA (Open Biosystems); also called huCD47/mFc; hCD47/mFc; source: purified recombinant

[3] = target: T3, cynoCD47/mFc fusion protein (extracellular domain of cynomolgus CD47 fused to mouse Fc) (Macaca fascicularis, UniProt A0A2K5X4I2); experiment: SPR; Biacore 2000; antibody amine coupled to a CM4 chip, CD47 constructs as analyte; 10 mM HEPES pH 7.4, 150 mM NaCl, 0.005% tween-20; 25°C; global fit to a 1:1 model with mass transport; conditions: both partners purified
T3 construct: cynomolgus monkey CD47 extracellular domain, cDNA cloned from a cynomolgus spleen cDNA library (BioChain); differs from human CD47 at 3 amino acids in the extracellular domain; also called cyno-CD47 Fc fusion protein; cynomolgus monkey CD47

B1: mouse anti-human CD47 monoclonal antibody 5F9 (antibody, V domains shown)
VH: QVQLQQPGAELVKPGASVMMSCKASGYTFTNYNMHWVKQTPGQGLEWIGTIYPGNDDTSYNQKFKDKATLTADKSSSAAYMQLSSLTSEDSAVYYCARGGYRAMDYWGQGTSVTVSS
VL: DVLMTQTPLSLPVSLGDQASISCRSSQSIVYSNGNTYLGWYLQKPGQSPKLLIYKVSNRFSGVPDRFSGSGSGTDFTLKISRVEAEDLGVYHCFQGSHVPYTFGGGTKVEIK
notes: mouse 5F9 VH (IGHV1 family); mouse heavy chain constant region; mouse 5F9 VL (IGKV1 subgroup); mouse light chain constant region; not described beyond the IGKV1 V segment; also called mouse 5F9; parental mouse 5F9; source: hybridoma (spleen cells of immunized Balb/c mice fused with SP2/0 cells); supernatant in the FACS screen; copies: 2 + 2
[1]
  binding result: binds
[2]
  binding result: binds

B2: Hu5F9-G4 (humanized 5F9 antibody, human IgG4 with Ser228Pro) (antibody, V domains shown)
VH: QVQLVQSGAEVKKPGASVKVSCKASGYTFTNYNMHWVRQAPGQRLEWMGTIYPGNDDTSYNQKFKDRVTITADTSASTAYMELSSLRSEDTAVYYCARGGYRAMDYWGQGTLVTVSS
VL: DIVMTQSPLSLPVTPGEPASISCRSSQSIVYSNGNTYLGWYLQKPGQSPQLLIYKVSNRFSGVPDRFSGSGSGTDFTLKISRVEAEDVGVYYCFQGSHVPYTFGQGTKLEIK
[3]
  Kd: 10 pM
